Article PMC11085213, “Plastid Molecular Chaperone HSP90C Interacts with the SecA1 Subunit of Sec Translocase for Thylakoid Protein Transport” (Plants, 2024)

How the values were obtained:
[1] = target: His6-tagged mSecA1 (Arabidopsis) (UniProt Q9SYI0)
[2] = substrate: Nc1ncnc2c1ncn2[C@@H]1O[C@H](COP(=O)(O)OP(=O)(O)OP(=O)(O)O)[C@@H](O)[C@H]1O; assay: ATPase, NADH-coupled (pyruvate kinase / lactate dehydrogenase); radicicol-sensitive activity; type: biochemical, Arabidopsis thaliana; conditions: pH 7.5, 5 mM MgCl2, 500 mM KCl, HSP90C alone, called ATP binding affinity

Chain of His6-tagged mSecA1 (Arabidopsis) (Q9SYI0 73-1022): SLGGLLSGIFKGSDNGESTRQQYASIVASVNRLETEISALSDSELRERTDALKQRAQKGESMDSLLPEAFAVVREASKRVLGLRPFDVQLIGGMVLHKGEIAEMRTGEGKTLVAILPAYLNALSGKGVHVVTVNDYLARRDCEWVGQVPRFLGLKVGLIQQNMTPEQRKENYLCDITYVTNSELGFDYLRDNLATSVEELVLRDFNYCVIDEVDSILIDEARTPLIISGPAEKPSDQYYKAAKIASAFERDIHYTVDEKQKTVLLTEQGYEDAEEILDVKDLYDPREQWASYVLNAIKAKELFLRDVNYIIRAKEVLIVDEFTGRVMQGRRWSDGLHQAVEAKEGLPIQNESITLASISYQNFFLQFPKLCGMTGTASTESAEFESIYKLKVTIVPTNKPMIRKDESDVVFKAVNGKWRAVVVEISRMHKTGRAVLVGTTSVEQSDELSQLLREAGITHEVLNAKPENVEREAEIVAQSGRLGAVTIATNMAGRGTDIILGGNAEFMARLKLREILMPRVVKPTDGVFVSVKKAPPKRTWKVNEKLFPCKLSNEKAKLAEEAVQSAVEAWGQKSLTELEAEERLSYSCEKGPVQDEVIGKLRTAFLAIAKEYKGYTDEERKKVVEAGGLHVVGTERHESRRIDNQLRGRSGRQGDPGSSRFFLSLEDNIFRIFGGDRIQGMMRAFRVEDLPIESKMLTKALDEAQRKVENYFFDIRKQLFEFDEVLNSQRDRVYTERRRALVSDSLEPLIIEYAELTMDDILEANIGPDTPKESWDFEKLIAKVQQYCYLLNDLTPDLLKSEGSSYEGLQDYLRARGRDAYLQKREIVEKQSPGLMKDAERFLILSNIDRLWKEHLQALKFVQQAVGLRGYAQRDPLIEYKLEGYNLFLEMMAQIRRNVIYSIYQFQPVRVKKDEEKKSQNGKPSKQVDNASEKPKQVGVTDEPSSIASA

Molecule	combined ATP turnover rate (kcat) of the equimolar mixture SecA1 + HSP90C (1.41 μM each), NADH-coupled assay at 5 mM ATP; sum of the two proteins' own average rates 2.93 min^−1 [1] [s⁻¹]	rise of the ATP turnover rate of SecA1 + HSP90C + PsbO1 (equimolar) relative to the SecA1 + HSP90C mixture, NADH-coupled assay [1] [%]	Km [2] [mM]
His6-tagged HSP90C (from UniProt Q9SIF2 61-780) (natural protein)	0.0581	16	
HSP90C (Arabidopsis thaliana) (protein, His6-tagged HSP90C (pProEX HTb), E. coli BL21(DE3)-pRIL, Ni-NTA and Superdex 200) CDAAVAEKETTEEGSGEKFEYQAEVSRLLDLIVHSLYSHKEVFLRELVSNASDALDKLRFLSVTEPSLLGDGGDLEIRIKPDPDNGTITITDTGIGMTKEELIDCLGTIAQSGTSKFLKALKENKDLGADNGLIGQFGVGFYSAFLVAEKVVVSTKSPKSDKQYVWESVADSSSYLIREETDPDNILRRGTQITLYLREDDKYEFAESTRIKNLVKNYSQFVGFPIYTWQEKSRTIEVEEDEPVKEGEEGEPKKKKTTKTEKYWDWELANETKPLWMRNSKEVEKGEYNEFYKKAFNEFLDPLAHTHFTTEGEVEFRSILYIPGMGPLNNEDVTNPKTKNIRLYVKRVFISDDFDGELFPRYLSFVKGVVDSDDLPLNVSREILQESRIVRIMRKRLIRKTFDMIQEISESENKEDYKKFWENFGRFLKLGCIEDTGNHKRITPLLRFFSSKNEEELTSLDDYIENMGENQKAIYYLATDSLKSAKSAPFLEKLIQKDIEVLYLVEPIDEVAIQNLQTYKEKKFVDISKEDLELGDEDEVKDREAKQEFNLLCDWIKQQLGDKVAKVQVSNRLSSSPCVLVSGKFGWSANMERLMKAQALGDTSSLEFMRGRRILEINPDHPIIKDLNAACKNAPESTEATRVVDLLYDTAIISSGFTPDSPAELGNKIYEMMAMAVGGRWGRVEEEEESSTVNEGDDKSGETEVVEPSEVRAESDPWQD			4.01
